Data reported in patent US20070191277.

How the values were obtained:
[1] = molecular target: T1, rPAI-123 (recombinant truncated porcine plasminogen activator inhibitor-1 isoform; RCL deleted, partial deletion of the heparin-binding domain)
T1 chain: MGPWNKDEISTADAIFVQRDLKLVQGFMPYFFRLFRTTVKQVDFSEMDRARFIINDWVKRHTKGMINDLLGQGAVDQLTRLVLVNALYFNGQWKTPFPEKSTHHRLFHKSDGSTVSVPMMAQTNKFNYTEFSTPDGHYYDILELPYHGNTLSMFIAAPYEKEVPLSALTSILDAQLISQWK

[2] = molecular target: T2, rPAI-1Δ23 (recombinant truncated porcine plasminogen activator inhibitor-1 isoform; RCL deleted, heparin-binding domain deleted)
T2 chain: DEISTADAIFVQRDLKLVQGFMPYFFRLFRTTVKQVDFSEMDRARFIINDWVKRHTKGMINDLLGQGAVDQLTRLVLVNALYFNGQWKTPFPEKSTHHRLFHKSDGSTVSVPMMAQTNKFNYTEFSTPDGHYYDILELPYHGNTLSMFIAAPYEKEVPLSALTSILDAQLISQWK

B1: plasminogen (protein)
chain: EPLDDYVNTQGASLFSVTKKQLGAGSIEECAAKCEEDEEFTCRAFQYHSKEQQCVIMAENRKSSIIIRMRDVVLFEKKVYLSECKTGNGKNYRGTMSKTKNGITCQKWSSTSPHRPRFSPATHPSEGLEENYCRNPDNDPQGPWCYTTDPEKRYDYCDILECEEECMHCSGENYDGKISKTMSGLECQAWDSQSPHAHGYIPSKFPNKNLKKNYCRNPDRELRPWCFTTDPNKRWELCDIPRCTTPPPSSGPTYQCLKGTGENYRGNVAVTVSGHTCQHWSAQTPHTHNRTPENFPCKNLDENYCRNPDGKRAPWCHTTNSQVRWEYCKIPSCDSSPVSTEQLAPTAPPELTPVVQDCYHGDGQSYRGTSSTTTTGKKCQSWSSMTPHRHQKTPENYPNAGLTMNYCRNPDADKGPWCFTTDPSVRWEYCNLKKCSGTEASVVAPPPVVLLPDVETPSEEDCMFGNGKGYRGKRATTVTGTPCQDWAAQEPHRHSIFTPETNPRAGLEKNYCRNPDGDVGGPWCYTTNPRKLYDYCDVPQCAAPSFDCGKPQVEPKKCPGRVVGGCVAHPHSWPWQVSLRTRFGMHFCGGTLISPEWVLTAAHCLEKSPRPSSYKVILGAHQEVNLEPHVQEIEVSRLFLEPTRKDIALLKLSSPAVITDKVIPACLPSPNYVVADRTECFITGWGETQGTFGAGLLKEAQLPVIENKVCNRYEFLNGRVQSTELCAGHLAGGTDSCQGDSGGPLVCFEKDKYILQGVTSWGLGCARPNKPGVYVRVSRFVTWIEGVMRNN
**Q.** Which “plasminogen cleavage (immunoblot probed for mini-plasminogen)” value [1] does the source give for B1 here?
**A.** the rPAI-123 recombinant protein cleaves plasminogen

**Q.** What about the “plasminogen cleavage (immunoblot probed for mini-plasminogen)” value [2] of the same protein?
**A.** the rPAI-1Δ23 protein did not cleave plasminogen, even when increasing concentrations of the recombinant protein were added
